From patent US20200268855

Target: T1, ALDH1A2-His6 (UniProt O94788)
T1 sequence: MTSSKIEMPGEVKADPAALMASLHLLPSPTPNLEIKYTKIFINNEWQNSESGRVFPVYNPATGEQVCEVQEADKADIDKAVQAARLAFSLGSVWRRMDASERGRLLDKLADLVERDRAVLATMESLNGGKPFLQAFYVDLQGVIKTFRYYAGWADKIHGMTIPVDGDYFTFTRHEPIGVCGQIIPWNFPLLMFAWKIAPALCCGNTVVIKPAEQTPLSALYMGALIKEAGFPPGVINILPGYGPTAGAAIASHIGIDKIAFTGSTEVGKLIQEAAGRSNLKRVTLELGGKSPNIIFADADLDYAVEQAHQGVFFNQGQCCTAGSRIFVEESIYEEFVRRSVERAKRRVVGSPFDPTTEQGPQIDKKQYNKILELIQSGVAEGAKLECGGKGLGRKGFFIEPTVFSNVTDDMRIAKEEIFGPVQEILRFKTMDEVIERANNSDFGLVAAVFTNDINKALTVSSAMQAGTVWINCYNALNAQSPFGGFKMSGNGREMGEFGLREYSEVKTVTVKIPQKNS

human UBE3A protein
ubiquitination of ALDH1A2 in the reconstituted bacterial ubiquitination system (immunoblot): the ALDH1A2 protein was highly ubiquitinated in the presence of UBE3A protein
